Test results reported in article PMC3563936.

Molecular target: T1, Dpo4 (Y-family DNA polymerase) (Sulfolobus solfataricus, UniProt Q97W02 1-352)
T1 sequence: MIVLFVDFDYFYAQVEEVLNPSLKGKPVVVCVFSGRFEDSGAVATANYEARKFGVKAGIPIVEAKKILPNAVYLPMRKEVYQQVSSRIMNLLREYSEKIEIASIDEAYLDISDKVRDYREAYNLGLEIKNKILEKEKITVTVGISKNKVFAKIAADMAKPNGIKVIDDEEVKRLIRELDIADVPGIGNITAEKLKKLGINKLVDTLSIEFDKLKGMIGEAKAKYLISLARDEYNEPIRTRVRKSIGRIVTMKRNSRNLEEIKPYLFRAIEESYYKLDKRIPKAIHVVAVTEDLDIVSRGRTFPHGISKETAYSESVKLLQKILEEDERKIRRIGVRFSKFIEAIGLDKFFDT
Experiment: X-ray crystallography

B1: 14/18-mer primer/template DNA (dsDNA)
DNA 1: GGGGGAAGGATTCC
DNA 2: TCATGGAATCCTTCCCCC
B1: binds.
